From the DeepSol protein solubility set

Experiment: soluble on expression in E. coli; label from the status in PepcDB or PDB records

Row | Sequence | soluble on expression in E. coli
1 | MSLKALHFGAGNIGRGFIGKLLADAGIQLTFADVNQVVLDALNARHSYQVHVVGETEQVDTVSGVNAVSSIGDDVVDLIAQVDLVTTAVGPVVLERIAPAIAKGQVKRKEQGNESPLNIIACENMVRGTTQLKGHVMNALPEDAKAWVEEHVGFVDSAVDRIVPPSASATNDPLEVTVETFSEWIVDKTQFKGALPNIPGMELTDNLMAFVERKLFTLNTGHAITAYLGKLAGHQTIRDAILDEKIRAVVKGAMEESGAVLIKRYGFDADKHAAYIQKILGRFENPYLKDDVERVGRQPLRKLSAGDRLIKPLLGTLEYGLPHKNLIEGIAAAMHFRSEDDPQAQELAALIADKGPQAALAQISGLDANSEVVSEAVTAYKAMQEGGSHHHHHH | soluble
2 | MSLKAQRYASVLTLDNLTGRLVVVGDIHGCLAQLQGMLRAVSFKQGSDTLVAVGDLVNKGPDSFGVVRLLKRLGAHSVLGNHDVKLLKLVKKIREKGPLNERDTKSSLAPFALTVPVDVEVYLSQLPHIIRIPAHNVIMTHGGLHPQRPLDCQYIDEVTTLRNLIEKEQKAGGVTLVATPETKDGGVPWASLWRGPETVVFGHDSRRGLQEQYRPLAIGLDSGCVYGGRLSAAVFPGGHIVSVSGWRREAKEGHHHHHH | soluble
3 | MSLKATSSDDKVTFHALNGDVKVPKNPKRIAVQNYPDEVASLGANVVGTDSWAFPNTFLSKDQKKNMVDLGAPKFNMEKLIAQNPDLIITVDKDQVADYQKVAPTVLVNYKDLSGMNKSLDYFAKLLNREDEKASFLKNFKKEADKQKEKLAKVDVKPAKNTISLLELQGDKVYAFGDNFARGGQALTTGLGFKESSKMAELSKGVGYAEVNTESLGEFDADYIFIDFADKDKEQYAALKNNPAWQNLKAVKEGHVITMDYDKVYFFGGPTAAKEELSLYTDAIIKATKEGHHHHHH | soluble
4 | MSLKAVQQHAFGGPEVLSYEDAPMPVLQAGEVLVQVYAVGVNPPDSYLRDGYQQLPPEWRPEVRFPLILGTDLSGVVVARADDVREVAVGDEVYAMARFPEGAAGGSRAYAEYVSVPVSDLARKPLTLSHQQAAAVPMSLLTAWQFMIDPGHEVANPLQPGPHRPVPLAGKRVLVNGAAGGVGHFAVQLAKWQGAEVIAVAAGCHEAFLRQLGADSVIDYTTTAVEETVRDLDLVIDAPGGPASGRFLRTLRPGGALYPIFPLGFAGAEEARQRGVTVSTTQVRSSGAQLARLADLLDAGVIRVAIDSVFPLAQAQMAHERAAQGHLEGKIVLSVMDSEGHHHHHH | soluble
5 | MSLKAWQLENFGLDNLKQVELEKPEIAEDQILIKVNSVSLNYRDTAIVEGIYTPELLKFPFIPVSDASGIVVEIGSKVTKFKKGDRVTSHMFTKWLDGKPKSDEQSHALGATVDGGLSEYMVLNENAAVFSPETLTDNQSSTLPVAAFVNWFSLVEYGNIKAGDKVLVQGTGGVSIFAIQIASALGAEVIATSSSDEKLEKAKELGASKVINYKTHPDWEKEVQKLTNGKGVEHIVEVVGGSSIAKSIDALAFQGHIYVIGFLENMEANVNLFALLAKQARIQGVNLGHHRAFEDFNKALDQINIDPVIDTVYSFDQAKEAYEHQMKGAFGKIVIDFNEGHHHHHH | not soluble
6 | MSLKEDFDLKTHIESSGHGVDTCLHVVLSSKVCRGYLVKMGGKIKSWKKRWFVFDRLKRTLSYYVDKHETKLKGVIYFQAIEEVYYDHLRSAAKKRFFRFTMVTESPNPALTFCVKTHDRLYYMVAPSAEAMRIWMDVIVTGAEGYTQFMNEGHHHHHH | not soluble
7 | MSLKFAFIAKHRSIWPVAWLCEALGVSRSGFHAWFNRSPSEHARHDEVLLERIKQSFQSSDRTYGARRVWHDVLEEGLSCGLHRIERLMRLNALRARPRRRGFPKDAGDRPVVMPNVLDRQFVADRPNQKWVADFTYIWTAEGWLYVAAVIDLFSRRVVGWSMNANMTAQLVTDALIMAIWRRGKPDALLHHSDQGSQYTSEQFQRLMGDHGITCSMSRSGNVWDNAAMESFFSSLKTERTARKVYRTRNDARADVFDYIERFYNPKRRHSTLGYLSPDDFETKVGLAEGHHHHHH | not soluble
8 | MSLKFTAIDFETANEKRNSPCSIGIVVVKDGHVVEKSHHLIRPKEMRFMPINIGIHGIRPAMVEKEPEFDKVWEKIKHYFDDTLVIAHNASFDISVLRKSAELYNIELPEFNYICTMKLARNFYKGIENAKLNTVNNFLGYEFRHHDALYDALACSNIMLSISKELKCKDITEISKLLGEGHHHHHH | not soluble
9 | MSLKFVGLVGSNYDQSYNRKLLEFIRRYFKLKFELEVLEIDEVPMFNQDEKWDESFQLRYLYNKITRADGVIIATPEHNHTISASLKSVLEWLSYEVHPFENKPVMIVGASYYDQGTSRAQVHLRKILDAPGVNAYTLPGNEFLLGKAKEAFDNNGNITNEGTVKFLETCLDNFVKYVGVVSKLKKPKPIESEDLDCGKPIATTITEVDPDDPEWVEKVAAFTGAVSGDTYVKLDHGILTVNQIDMFLKAMPFELTYADDNNQFLYYNNAHQDPDTMFAKRVPPQSGSRMSTVHGSLPPARMKNVEWVIGTLRNGNQEYVRTIVPGSPAGVINTHNYQAMYYPDGSYAGINEIVFNFQPWLDWYLKETGQRLVGGSGPFAPAAGGHGDADATSGASDSGDAGGHGGDADATAGASYEGHHHHHH | soluble
10 | MSLKGKIIEKVISKVKCKSDENYKIGLWVRDSTAGIGTLTFYSDKTKVFGALGHPITDVDTGDIINISRGSLIDSSIVSVNKGIRGNPGELRGIFINENKPIGIVKNNTICGLFGKGYEKFEGLQYNKPMEVAMRNEVKLGPAKILTTIDGSQPKMYAINIEKLFDQSSPNPKSMMIKVTDAELLDKTGGIVQGMSGSPIIQNNKVVGAVTHVLINKPDTGYGVYIEWMLKSAGILEGHHHHHH | soluble
11 | MSLKHVVVIGAVALGPKAACRFKRLDPEAHVTMIDQASRISYGGCGIPYYVSGEVSNIESLQATPYNVVRDPEFFRINKDVEALVETRAHAIDRAAHTVEIENLRTGERRTLKYDKLVLALGSKANRPPVEGMDLAGVTPVTNLDEAEFVQHAISAGEVSKAVIVGGGFIGLEMAVSLADMWGIDTTVVELADQIMPGFTSKSLSQMLRHDLEKNDVVVHTGEKVVRLEGENGKVARVITDKRTLDADLVILAAGVSPNTQLARDAGLELDPRGAIIVDTRMRTSDPDIFAGGDCVTIPNLVTGKPGFFPLGSMANRQGRVIGTNLADGDATFPGAVGSWAVKLFEGSASGAGLTVEGALREGYDAVNVHVEQFDRAHFYPEKTIMTLQLVVDRPTRRVLGIQGFSTLGDALTARINAVATMLASKPTVEDISNAEVVYSPPFASAMDIVNVAGNVADNVLAGRCRLVGTEEFVQLWEGRKDADICFVDTRLAANAVPLVEKYGDEWINIPEEELAARIDEIPRDKTVMLVCNTGLRSFESQLILDRLGLTNTKSVAGGMVAIHKIGGDEGHHHHHH | soluble
12 | MSLKIAEMDSNSAVMAAQNEVIRGEIKDRDGNVLAKSTKSGDLTQKREYPYGEIYSHPIGYASGIYGNAGLEGAYSKELTTYENVSLKAFLKSFNLKKDFKERNESDKKVGNSIVTTLDTDLQKAAYAALGANRGAVVALDPKTGAVLASVSKPGFNPNNMKETYEIANNPNGNPKDAILVDRALNGQYPPGSTFKVVTLTSALENLPGVTERTFNDTGSINVGTKDLPNENGNAYGNISLRKALSVSSNVIFGGILGEELGNKKLRETAEKYGFNKDLYLGNLKAYSGSFPDRKTVDKGLIAYDAIGQGEVLSSPIEMAMVAATVANNGVRMEPYIVSKVVDKDGDTVKEFSSTKKDTVMSKEQAQIINEYMQGVAKDRINDNWGYFKGMNVAAKTGTAQVPDGNSHAWLIAFAPADDPKIAVATIVENGGSGSKVAAPVTARVMQAYFNEGHHHHHH | soluble
13 | MSLKIAIVGSGNGAVTAAVDMVDKGHDVRLYCRNESISKFDVALEKGGFDFNNEGEEKFIEFTDISDDMEYVLDGADIVQVIIPSSFIEYYAKVMSKFVTNDHLIFFNIAASMGSIRFMNVLEDRHIDVHPHFAEANTLTYGTRVDFNNAKVDLSLNVRRVFFSTFDRSELNESYEKVSKIYDYLVKEESLLKTNLENGNPEVHPGPTLLNVGRIDYSEEFSLYKEGITKHTVRLLHAIEIERLNLGRKLGFELSTAKESRIQRGYLERKDEDEPLNRLFNTSPVFSQIPGPNHVENRYLTEDIAYGLVLWSSLGRVIDVPTPNIDAVIMIASTILERDFFEEGLTIEELGLDKLGLEEGHHHHHH | soluble
14 | MSLKIKSIKAITLSMPFSHGGKKVIFHGKEWKSLEFNLVKVETDKGIIGWGEAFGYTSWKAVKIAIEDMVAPLLVGKDMTNIPELILILQKSLHLFGRYGITMFAISGVEIALWDALGKEKNKPIHELLGKKNKDLFKAYSSLFRYGDPKIVEQKCKQSLDDGYQAIKLHEIENNCIEAGRKGTGNLPLMLDTNCPWTYEETLAKKNFLQEMRLTWLEEPIYPPEDYQTLAKLKKELDIPIACGENACTEFEFKSIIDQNAVTYVQPSVIKVGGIYEMFKIIQHAEKNNILVMPHTAYFGPGFLATLQLASLMKNETYIERFYLDIDQEFYPNFKRALNGKYKLPSGPGLGIDLDYKKLSKYEIEGHHHHHH | soluble
15 | MSLKINGEVTFKNNQVNYDENAITNLKLSGSDAKKENIKEVYMDLTNVGGPNKVLMDLNLLKDNSLSQSIGINDNVVAGEKEIPVTIVDKNGENHKAKGILTVKSKVGVGPLDFGFDESRIYFTVTDRFFNGDKNNDDPHGNNYDKKNPYTYHGGDLKGLTDKISYLKELGINTIWITPIVENTDFNQMFSQGKTQYSCHGYWAKDFEKLDPHLGTMDDLKTLIDTAHDSGIKIMVDVVLNHAGYGMKNKDNSGANNSPTEEDIAKFKGMFRENPGNDFITQESAGLPDFKTEDPEVREKLIEWQTGWIERSKTEKGNTIDYFRVDTVKHVDNTTWKAFKNKLTEINPSFKTIGEYFGADINNDGGQLQNGQMDALLDFGYKGKARDFVNGNIEGTSAYLDDRASKISNTNLMGQFLSSHDEDGFLKTVGDDLGKQMLAASLQITDKGIPVIYYGEELGMSGWNGFEQGDQNRYDMDFERLNDPKYKKVHDHYEKLLNIRKEYSKIFSKGNRKTIAGNNEEGYSVVLRSYNGKEITPMNLSENNEEKNITNGQNLFVVLNTKNEDKDISFKTNFKEGEKVKDLYSGNEYSIGKDGKVTVKVPSKEEGGTAILALKNREGHHHHHH | soluble
16 | MSLKITAARVIITCPGRNFVTLKIETDQGVYGIGDATLNGRELSVVAYLAGTRRALPHRHGPAPHRGHLAVCLSRAYWRAPARLTMRAIAAVDMALWDIKAKMAGMPLYQLLGGRSRDGIMVYGHANGSDIAETVEAVGHYIDMGYKAIRAQTGVPGIKDAYGVGRGKLYYEPADASLPSVTGWDTRKALNYVPKLFEELRKTYGFDHHLLHDGHHRYTPQEAANLGKMLEPYQLFWLEDCTPAENQEAFRLVRQHTVTPLAVGEIFNTIWDAKDLIQNQLIDYIRATVVGAGGLTHLRRIADLASLYQVRTGCHGATDLSPVTMGCALHFDTWVPNFGIQEYMRHTEETDAVFPHDYWFEKGELFVGETPGHGVDIDEELAAKYPYKPAYLPVARLEDGTMWNWEGHHHHHH | not soluble
17 | MSLKITNVQTQKVLVPLKKPLITAIHKTDSVGVVIVKIETDTGLVGENYVFALNKDRLDVFDAMIKSLTQFLIGNNPVYVEKIWQQMWQDCNPVGQKGIAISAISAIDTALWDLIGKQANMPLYQVFGACRDKVKTYASSGLWLSSNIDELIEEAHGFIDQGFRSMKLRLGKPDLKEDVERARALRASVGDDIEILTDANQSLTPRQAIALGRQLEDLNIAWLEEPVPAHDLAGHNRVLEAINIPVASGETDYTRFGMKDMLDHKAVDILMPDLQRIGGLSEFRKAAALASAYHIPVSSHIFTEQSLSIAGSADNCISVEHVDWFAPLYQEKIVINDGFIDMPMGAGIGFNFDYDFIDQNLIEGHHHHHH | soluble
